Laboratory results taken from patent US20260258115A1 (MAPP BIOPHARMACEUTICAL, published 2026).

What was measured:
[1] = biological target: RSV prefusion F (preF), subtype A (respiratory syncytial virus, subtype A, UniProt P03420 26-513); assay: BLI, IgG
[2] = biological target: T1, RSV postfusion F (postF), subtype B (respiratory syncytial virus, subtype B); assay: BLI, IgG
T1 construct: also called F ΔFP; Postfusion subtype B

[3] = biological target: RSV prefusion F (preF), subtype B (respiratory syncytial virus, subtype B); assay: BLI, IgG
[4] = biological target: T2, RSV postfusion F (postF), subtype A (respiratory syncytial virus, subtype A, UniProt P03420 26-513); assay: BLI, IgG
T2 construct: also called F ΔFP; Postfusion subtype A

[5] = biological target: RSV F on RSV subtype A virus (RSV-A2) (Respiratory Syncytial Virus, subtype A, …, UniProt P03420 26-574); assay: cell-based or functional assay

Binder | Kd [1] [nM] | Kd [2] [nM] | Kd [3] [nM] | Kd [4] [nM] | Neutralization - RSV A2 IC50 (pM) [5] [pM] | neut IC50 (ug/ml) subtype A (wright) [5] [µg/mL] | binding result [1]
ADI-21043 (antibody, V domains shown) VH: QVQLVQSGAEVKKPGASVKVSCKASGYTFTSYGITWVRQAPGQGLEWMGWISTYNGKTNYAQKFKGRVTMTTDTSTSTAYVELTSLRSDDTAVYYCAREFPTRIVDSFYMDVWGKGTTVTVSS VL: SYELTQPPSVSVAPGQTARITCGGSNIGSETVHWYQQKPGQAPVLVVYGDSDRPSGIPERFSGSNSGNTATLTISRVEAGDEADYYCQVWDSRSDDFHVFGSGTKLTVL | 0.111 | 1.93 | 0.154 | 1.65 |  |  | 
ADI-21062 (antibody, V domains shown, also called Ab 310) VH: EVQLLESGGGLVKPGGSLRLSCAASGFTFSDYDMIWVRQAPGKGLEWVSSISRGSDYIYYADSLKGRFTISRDNARNSVTLQMNSLRAGDTALYFCARAELLDSGGYYLYYFDHWGQGTLVTVSS VL: DIRMTQSPSSLSASVGDRVTITCRASQIIASYVNWYQKKPGKAPKVLIYAASRLQNGVPSRFSGSGSGTEFTLTISSLQPEDFATYYCQQSYSTSFTFGQGTKVDIK | 1.24 | 0.417 | 0.827 | 0.236 |  |  | 
ADI-36670 (antibody, V domains shown) VH: QVQLVQSGAEVKKPGSSVKVSCKASGGTFSTYTINWVRQAPGQGLEWMGRITPSLGVPLSAQKFQGRITISADKSTTTAYMELSSLGSEDTAVYYCASLNYYDTTDYYLGYSDSWGQGTLVTVSS VL: DIVLTQTPATLSVSPGERATLSCRASHSVSNNLAWYQQKPGQAPRLLIYSASTRATGIPARFSGRGSGTEFTLTISSLQPEDFAVYYCQQYNNWPPEYTFGQGTKVDIK |  |  |  |  | 141 | 0.008 | 
ADI-36674 (antibody, V domains shown) VH: EVQLLESGGGLVKPGGSLRLSCAASGFKFRSYSMNWVRQAPGKGLEWVSSISSSSSYVDYAGSLKGRFTISRDNAENSLYLQMNSLRAEDTAMYYCARAGSVPVAGTYNDYWGQGTLVTVSS VL: QSVLTQPPSVSGAPGQRVTISCTGSSSNIGAGYDVHWYQHLPGTAPKLLIHGNNNRPAGVPDRFSGSKSGTSASLVITGLQADDEADYYCQSYDRSLSVLFGGGTKVTVL |  |  |  |  | 190 | 0.014 | 
ADI-21019 (antibody, V domains shown) VH: EVQLLESGGGLVRPGGSLRLSCAVSGFTFSGNALTWIRRAPGKGLEWVSTIGDSGGGSYYADSVKGRFTISRDNSKSTLYLQMNSLTAEDTAVYYCARDPYGDYRDYYGIDVWGQGTTVTVSS VL: EIVMTQSPLSLPVTPGEPASISCRSSQSLRHSNGYNYVDWYLQKPGQSPQLLIYLGSNRASGVPDRFRGSGSGTDFTLKISRVEAEDVGVYYCMQALQTPLTFGQGTKVEIK | 0.182 | 0.168 | 0.962 | 0.154 |  |  | 
ADI-41232 (antibody, V domains shown) VH: QVQLVQSGAEVKKPGASVKVSCKASGYTFTHYGISWVRQAPGQGLEWMAWISAYNGNTNYAQKLQDRVTVTTDTSTSTAYMELRSLRSDDTALYYCARDSMGGTTLFDYWGQGTLVTVSS VL: DIVLTQTPLSLPVTLGQPASISCRSSQSLVYSDGNTYLNWFQQRPGQSPRRLIYKVSNRDSGVPDRFTGSGSGTDFTLKISRVEAEDVGVYYCMQGTHWPPMYTFGQGTKLEIK |  |  |  |  | 104 | 0.025 | 
ADI-21042 (antibody, V domains shown, also called Ab 290) VH: EVQLVESGPRLVKPSQTLSLTCNVSGVPVNTGGYYWSWIRRHPIKGLEWIGYIYYSGSTHYNPSLRGRATMSVDTSKNQFSLRLSSVTAADTAVYYCAKDTITVLRGVAKKGVFDPWGQGILVTVSS VL: DIQMTQSPSTLSASVGDRVIITCRASQSISSWLAWYQYKPGKAPNLLIYKATTLDSGVPSRFSGSGSGTEFTLTISSLQPDDFATYYCQQYDSYPTFGQGTKVEIK | 2.96 | 0.398 | 1.18 | 0.287 |  |  | 
ADI-21037 (antibody, V domains shown) VH: QVQLVQSGGGVVQPGRSLRLSCAASGFPFSSYAMHWVRQAPGKGLEWVAVIWYPGGEKYSADSVTGRFTISRDNSKNTLYLQMSSLRVEDTAVYYCARRSVGAFDYWGQGTLVTVSS VL: DIQMTQSPLSLPVTPGEPASISCRSSQSLLNSNGYNYLDWYLQKPGQSPQVLIYLGSHRASGVPDRFSGSGSGTDFTLRISRVEAEDVGVYYCMQAVQTPYTFGQGTKVEIK | 1.95 | 3.17 | 4.81 | 0.248 |  |  | 
ADI-21061 (antibody, V domains shown) VH: QVQLVQSGAEVKKPGSSVKVSCKASGGTFSNYPISWVRQAPGHGLEWMGRVVPTVGLANYAQNLQGRVTITADTSTNTVYMELRSLRSEDTGLYYCARRAVVDTYAFDIWGQGTLVTVSS VL: QSALIQPASVSGFPGQSITISCTGASSDVGGYNFVSWYQQHPGKAPKLIIYEVTKRPSGVSNRFSGSESGNTASLTISGLQAEDEADYYCSSFRYTSSIVYVFGSGTKVTVL | 1.1 | 2.48 | 2.76 | 0.142 |  |  | 
ADI-21039 (antibody, V domains shown) VH: EVQLVQSGAEVKKPGASVKVSCKASGYTFISYYIHWVRQAPGQGLEWMGVINPSGGITDYAPKFQGRVSMTRDTSTRTVYLELSSLRSDDTAVYYCARDLCITTSCPRYYDYAWRSYRSEGYFDSWGQGTLVTVSS VL: not shown | 1.71 | 6.31 | 12.7 | 0.24 |  |  | 
ADI-21026 (antibody, V domains shown) VH: QVQLVQSGPGLVKPSQTLSLTCTVSGVSISSGGFYWSWIRQHPGKGLEWIGHIYYSRSTYYNPSLKSRVTMSLNMSKNQFSLRLSSVTAADTAVYYCARERREWLHGELDYWGQGTTVTVSS VL: DIQMTQSPDSLAVSLGEGATINCKSSQSVLDSSKNKNYLAWYQQRPGQPPKLLISWASTRESGVPDRFSGSGSGTDFTLTISSLQAEDVAVYSCQQYFSPPATFGQGTKLEIK | 6.35 | 1.43 | 3.99 | 0.945 |  |  | 
ADI-41249 (antibody, V domains shown) VH: QVQLVQSGAEVKKPGESLKISCQVSRDTSTTYWIGWVRQMPGKGLEWMGIIFPGDSDTRYSPSFQGQVTISADKSIMTAYLQLTSLKASDTAMYYCATQALRGAFDIWGQGTMVTVSS VL: DIRLTQSPSSLSASVGDRVTITCQASQDISNYLNWYQQKPGKAPKLLIYDASYLETGVPSRFSGSGSGTDFTFTISSLQPEDFATYYCQQYDDLLFTFGPGTKLEIK |  |  |  |  | 51.7 | 0.006 | 
ADI-21047 (antibody, V domains shown) VH: QVQLQQWGAGLLKPSETLSLTCAVYGGSFSGKYWSWIRQPPGKGLEWIGEFNHDGTTYYNPSLKSRVTISADTPKNQFSLTLHSVTAADTAVYYCARLTILSDWGQGTLVTVSS VL: DIRMTQSPSSLSASVGDRVTITCQASQDISNYLHWYQQKPGKAPKLLIYDASNLETGVPSRFSGSGSGTDFTFTIHSLQPEDLATYYCQQYYDLPRTFGQGTKLEIK | 2.11 | 0.262 | 0.756 | 0.29 |  |  | 
ADI-21054 (antibody, V domains shown) VH: QVQLVESGGGVVQPGRSLRLSCAASGFSFSNYGMHWVRQAPGKGLEWVVGISFDGSYIFHGGSVTGRFNISRDNSKNTLYLQVNSVRAEDTAVYYCARDPQYYDDWSGYSGLLHYYLYMDVWGKGTTVTVSS VL: DIQLTQSPSTLSASVGDRVTITCRASQSIGTSLAWYQQIPGKAPKLLIYRASSLESGVPSRFSGGGSGTQFTLTISSLQPDDFATYYCQQYNNYSPTFGQGTKLEIK | 0.185 | 0.306 | 0.139 | 0.372 |  |  | 
ADI-21022 (antibody, V domains shown) VH: EVQLVETGPGLVKPSETLSLTCSVSGGSISSYYWSWLRQPPGKGLEWIGYIYNSGRTNYNPSLRSRVTISVDTSQNQFSLRLGSVTAADTAVYYCARGGAGDDLLRGSYRYLNFWGQGTLVTVSS VL: QSVLTQPPSVSVAPGQTARITCGGNNIGSKSVHWYQQKPGQAPVLVVYDDTERPSGIPERISGSNSGNTATLTISRVEAGDEADYYCQVWDSSSDHPDLLFGGGTKLTVL |  | 0.357 | 17.4 | 0.256 |  |  | no binding
ADI-21046 (antibody, V domains shown) VH: EVQLVESGAEAKKPGESLRISCTVSGYSFSKYWVGWVRQTPGKGLEWMGIIDPTDSDTRYSPSFQGQVTISVDNSINTAYLQWSSLKASDTAIYYCARRGQAKCVGNCPRDFMDVWGKGTTVTVSS VL: SYVLTQPPSVSGAPGQRVTISCAGSSSNIGAGYEVHWYQQLPGTAPKLLIYANRNRPSGVPDRFSGSRSGTSASLAISGLQAEDEADYYCQSYDNNLSGSWVFGGGTKLTVL | 1.66 | 0.224 | 0.694 | 0.187 |  |  | 
ADI-41344 (antibody, V domains shown) VH: EVQLVESGGGLVKPGGSLRLSCAASGSSFSSYYMNWVRQAPGKGLEWVSSISSSSTYIDYADSVKGRFTISRDNAKNSLFLQMNSLRAEDTAVYYCARVSSPMIRGYYLDYWGQGTLVTVSS VL: QPVLTQPPSVSGAPGQRVTISCTGSSSNIGAGYDVHWYQQLPGTAPKLVIHGNSNRPSGVPDRFSGSKSGTSASLAITGLQGEDEADYYCQSYDSSLSGSVFGGGTKLTVL |  |  |  |  | 229 | 0.064 | 
ADI-21055 (antibody, V domains shown) VH: EVQLVESGGGVVQPGRSLRLSCVGSGFTFSRYGMQWVRQAPGKGLEWAAVIWNDGSNEHYADSVKGRFTISRDNSKNTMYLQMNSLRAEDTALYYCAREGEYSSSWSHWSYLDLWGRGTLVTVSS VL: not shown | 1.1 | 4.35 | 2.98 | 0.185 |  |  | 
ADI-41222 (antibody, V domains shown) VH: QVTLKESGGGVVQPGRSQRLSCTASGFNFHNYAMHWVRQAPGKGLEWVAVISYDGSNKNFADSVKGRFTISRDNSKNTLNLQMNNLRAEDTAVYYCVRDIVRGSPLFDYWGQGTLVTVSS VL: QPVLTQPPSLSVAPGQTAWITCGGNNIGSKIVHWYQQKPGQAPVVVVYDDDDRPSGIPERFSGSNSGNTATLTIRRVEVGDEADYYCQVWDRSSDNYVFGTGTKVSVL |  |  |  |  | 39.9 | 0.016 | 
